Molecular target: the molecule itself
Experiment: SEC

B1: IBV-N218-329, recombinant C-terminal domain (residues 218-329) of the IBV nucleocapsid protein (domain or fragment, UniProt P69596 218-329, looked up)
chain: KADEMAHRRYCKRTIPPNYRVDQVFGPRTKGKEGNFGDDKMNEEGIKDGRVTAMLNLVPSSHACLFGSRVTPKLQLDGLHLRFEFTTVVPCDDPQFDNYVKICDQCVDGVGT
- stoichiometry N: 2
